Numbered stars: 1 amine (or outer) side, 2 acyl side, 3 side chain; on linkers, the order of the positions; unused ones are H or OH. Square brackets hold non-standard residues; d marks the D form. Ends that are not written are not given here. * marks the point of attachment. Tap(2Me) = (2S,4R)-4-(dimethylamino)pyrrolidine-2-carboxylic acid, CN(C)[C@@H]1C[C@@H](C(=O)[*:2])N([*:1])C1; Eal = rac-imidazolidine-2-carboxylic acid, O=C(C1N([*:1])CCN1[*:3])[*:2]; 6072‑OH = rac-7-hydroxy-dodecanoic acid, CCCCCC(O)CCCCCC(=O)*; Pro(trans-4-NH2) = O=C([C@@H]1C[C@@H](N[*:3])CN1[*:1])[*:2]; 6071‑OH = rac-6-hydroxy-decanoic acid, CCCCC(O)CCCCC(=O)*; Pro(trans-4-guanidino) = N=C(N)N[C@H]1CN[C@H](C(=O)O)C1; Sni = (S)-nipecotic acid, O=C([C@H]1CCCN([*:1])C1)[*:2]; Azetidine3carboxylic = O=C(C1CN([*:1])C1)[*:2]; Hyp = O=C(O)[C@@H]1C[C@@H](O)CN1; NMeF = CN[C@@H](Cc1ccccc1)C(=O)O; 2Pal = N[C@@H](Cc1ccccn1)C(=O)O; 4Pal = N[C@@H](Cc1ccncc1)C(=O)O; NMeL = CN[C@@H](CC(C)C)C(=O)O; Decanoyl = CCCCCCCCCC(=O)*; dOrn = NCCC[C@@H](N)C(=O)O; SH‑158 = not defined here; Octanoyl = CCCCCCCC(=O)*; dAze = O=C(O)[C@H]1CCN1; FrL = not defined here; Hexanoyl = CCCCCC(=O)*; Oct = not defined here; Sar = CNCC(=O)O
B1: JAL-1260 (peptide)
peptide: {6072‑OH}-FRL[Hyp][NMeL]DRI-NH2
modifications: not fully specified (some residues); printed as (6072-OH)-Phe-arg-Leu-Hyp-Nml-Asp-Arg-Ile-NH2
B2: JAL-1255 (peptide)
peptide: Octanoyl-[Sni]FRL[Hyp][NMeL]DRI-NH2
modifications: not fully specified (some residues); printed as Occ-Sni-Phe-arg-Leu-Hyp-Nml-Asp-Arg-Ile-NH2
B3: JAL-1265 (peptide)
peptide: Octanoyl-[Sni]FXL[Hyp][NMeL]DRI-NH2
modifications: not fully specified (some residues); printed as Occ-Sni-Phe-orn-Leu-Hyp-Nml-Asp-Arg-Ile-NH2
B4: JAL-1253 (peptide)
peptide: Octanoyl-[Sni]FSL[Hyp][NMeL]DRI-NH2
modifications: not fully specified (some residues); printed as Occ-Sni-Phe-ser-Leu-Hyp-Nml-Asp-Arg-Ile-NH2
B5: JAL-1249 (peptide)
peptide: Octanoyl-AFGL[Pro(trans-4-NH2)]LDRI-NH2
modifications: not fully specified (some residues); printed as Occ-ala-Phe-Gly-Leu-Tap-Leu-Asp-Arg-Ile-NH2
B6: JAL-1264 (peptide)
peptide: Octanoyl-AFLL[Tap(2Me)]LDRI-NH2
modifications: not fully specified (some residues); printed as Occ-ala-Phe-leu-Leu-Tap(2Me)-Leu-Asp-Arg-Ile-NH2
B7: JAL-1251 (peptide)
peptide: Octanoyl-AFLL[Pro(trans-4-NH2)]DRI-NH2
modifications: not fully specified (some residues); printed as Occ-ala-Phe-leu-Leu-Tap-Asp-Arg-Ile-NH2
B8: JAL-1252 (peptide)
peptide: Octanoyl-AFSL[Hyp][NMeL]DRI-NH2
modifications: not fully specified (some residues); printed as Occ-ala-Phe-ser-Leu-Hyp-Nml-Asp-Arg-Ile-NH2
B9: JAL-1268 (peptide)
peptide: Octanoyl-A[NMeF]KL[Hyp][NMeL]DRI-NH2
modifications: not fully specified (some residues); printed as Occ-ala-Nmf-lys-Leu-Hyp-Nml-Asp-Arg-Ile-
B10: JAL-1254 (peptide)
peptide: Octanoyl-[Sni]FKL[Hyp][NMeL]DRI-NH2
modifications: not fully specified (some residues); printed as Occ-Sni-Phe-lys-Leu-Hyp-Nml-Asp-Arg-Ile-NH2
B11: JAL-1256 (peptide)
peptide: Octanoyl-[Sni]XLL[Hyp][NMeL]DRI-NH2
modifications: not fully specified (some residues); printed as Occ-Sni-Mpa-leu-Leu-Hyp-Nml-Asp-Arg-Ile-
B12: JAL-1261 (peptide)
peptide: Decanoyl-FRL[Hyp][NMeL]DRI-NH2
modifications: not fully specified (some residues); printed as 5587-Phe-arg-Leu-Hyp-Nml-Asp-Arg-Ile-NH2
B13: JAL-1250 (peptide)
peptide: Octanoyl-AFRL[Pro(trans-4-NH2)]LDRI-NH2
modifications: not fully specified (some residues); printed as Occ-ala-Phe-arg-Leu-Tap-Leu-Asp-Arg-Ile-NH2
B14: JAL-1259 (peptide)
peptide: {6071‑OH}-FRL[Hyp][NMeL]DRI-NH2
modifications: not fully specified (some residues); printed as (6071-OH)-Phe-arg-Leu-Hyp-Nml-Asp-Arg-Ile-NH2
B15: JAL-1283 (peptide)
peptide: Octanoyl-[dA]F[dL]L[Hyp][SH‑158]DRI-NH2
modifications: reading uncertain; also: printed as Occ-ala-Phe-leu-Leu-Hyp-(SH-158)-Asp-Arg-Ile-NH2
B16: JAL-1263 (peptide)
peptide: Octanoyl-AFRL[Tap(2Me)]LDRI-NH2
modifications: not fully specified (some residues); printed as Occ-ala-Phe-arg-Leu-Tap(2Me)-Leu-Asp-Arg-Ile-NH2
B17: JAL-1262 (peptide)
peptide: Octanoyl-AFGL[Tap(2Me)]LDRI-NH2
modifications: not fully specified (some residues); printed as Occ-ala-Phe-Gly-Leu-Tap(2Me)-Leu-Asp-Arg-Ile-
B18: JAL-1266 (peptide)
peptide: Octanoyl-[Sni][2Pal]LL[Hyp][NMeL]DRI-NH2
modifications: not fully specified (some residues); printed as Occ-Sni-Opa-leu-Leu-Hyp-Nml-Asp-Arg-Ile-
B19: JAL-1284 (peptide)
peptide: Octanoyl-[dA]F[dR]L[Hyp][SH‑158]DRI-NH2
modifications: reading uncertain; also: printed as Occ-ala-Phe-arg-Leu-Hyp-(SH-158)-Asp-Arg-Ile-NH2
B20: JAL-1257 (peptide)
peptide: Octanoyl-[Sni][4Pal]LL[Hyp][NMeL]DRI-NH2
modifications: not fully specified (some residues); printed as Occ-Sni-Ppa-leu-Leu-Hyp-Nml-Asp-Arg-Ile-NH2

Target: T1, natriuretic peptide receptor-B (human)
T1 chain: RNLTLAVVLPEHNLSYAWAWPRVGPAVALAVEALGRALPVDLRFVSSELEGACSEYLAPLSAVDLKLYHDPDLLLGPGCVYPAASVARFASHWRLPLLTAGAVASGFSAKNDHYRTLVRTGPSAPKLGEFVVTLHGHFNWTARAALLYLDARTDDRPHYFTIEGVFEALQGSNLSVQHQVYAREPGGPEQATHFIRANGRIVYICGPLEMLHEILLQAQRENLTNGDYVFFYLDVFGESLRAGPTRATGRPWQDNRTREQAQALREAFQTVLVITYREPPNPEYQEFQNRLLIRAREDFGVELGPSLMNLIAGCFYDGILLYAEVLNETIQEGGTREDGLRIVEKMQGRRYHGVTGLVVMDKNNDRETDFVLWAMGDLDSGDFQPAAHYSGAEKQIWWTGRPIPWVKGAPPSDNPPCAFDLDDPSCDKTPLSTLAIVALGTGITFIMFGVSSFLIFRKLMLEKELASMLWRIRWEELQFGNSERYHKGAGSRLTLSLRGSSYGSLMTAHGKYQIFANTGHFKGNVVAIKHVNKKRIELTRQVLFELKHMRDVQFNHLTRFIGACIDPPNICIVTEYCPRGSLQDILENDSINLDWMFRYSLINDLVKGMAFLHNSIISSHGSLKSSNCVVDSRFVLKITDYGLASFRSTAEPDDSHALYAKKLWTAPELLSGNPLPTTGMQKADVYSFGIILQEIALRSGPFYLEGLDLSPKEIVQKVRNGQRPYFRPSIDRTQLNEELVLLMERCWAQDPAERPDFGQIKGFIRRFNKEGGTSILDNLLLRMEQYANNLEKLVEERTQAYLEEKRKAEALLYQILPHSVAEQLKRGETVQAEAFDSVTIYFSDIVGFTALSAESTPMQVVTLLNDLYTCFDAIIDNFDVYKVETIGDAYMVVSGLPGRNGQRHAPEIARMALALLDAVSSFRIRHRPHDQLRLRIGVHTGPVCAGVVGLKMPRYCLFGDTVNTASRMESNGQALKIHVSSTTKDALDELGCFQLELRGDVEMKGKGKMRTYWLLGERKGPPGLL
Assay: cell-based or functional assay

Row | Binder | EC50 group, cGMP in GTM-3 cells [µM]
1 | B1 | ≤ 5
2 | Hexanoyl-S[dA]FGLKLDRI-NH2 [JAL-0633] | ≤ 15
3 | Octanoyl-[dA]F[dL]L[Eal][NMeL]DRI-NH2 [JAL-1281_01] | ≤ 5
4 | [Oct][Sni][FrL][Hyp]LDRI-NH2 (reading uncertain; also: printed as Oct-Sni-FrL-Hyp-Leu-Asp-Arg-Ile-NH2) [JAL-1248] | ≤ 5
5 | B2 | ≤ 1
6 | B3 | ≤ 1
7 | Octanoyl-[dA]FGL[Eal][NMeL]DRI-NH2 [JAL-1282] | ≤ 15
8 | B4 | ≤ 5
9 | Octanoyl-[dA]FGL[Pro(trans-4-guanidino)]LDRI-NH2 [JAL-1270] | ≤ 5
10 | B5 | ≤ 1
11 | Octanoyl-[dA]F[dR]L[Pro(trans-4-guanidino)]LDRI-NH2 [JAL-1271] | ≤ 5
12 | Octanoyl-[dA][NMeF][dOrn]L[Hyp][NMeL]DRI-NH2 [JAL-1269] | ≤ 5
13 | Hexanoyl-G[dA]FGLKLDRI-NH2 [JAL-0631] | ≤ 15
14 | B6 | ≤ 5
15 | B7 | ≤ 1
16 | B8 | ≤ 1
17 | B9 | ≤ 5

Row | Binder | EC50 group, cGMP in GTM-3 cells [µM]
18 | Octanoyl-[Sar]F[dR]L[Hyp][NMeL]DRI-NH2 [JAL-1273] | ≤ 5
19 | B10 | ≤ 1
20 | Octanoyl-[Azetidine3carboxylic]F[dR]L[Hyp][NMeL]DRI-NH2 [JAL-1275] | ≤ 5
21 | B11 | ≤ 15
22 | B12 | ≤ 15
23 | Octanoyl-[dA]F[dL]L[Pro(trans-4-guanidino)]LDRI-NH2 [JAL-1272] | ≤ 5
24 | B13 | ≤ 1
25 | B14 | ≤ 15
26 | B15 | ≤ 1
27 | B16 | ≤ 5
28 | Hexanoyl-A[dA]FGLKLDRI-NH2 [JAL-0632] | ≤ 15
29 | B17 | ≤ 5
30 | Octanoyl-[dAze]F[dR]L[Hyp][NMeL]DRI-NH2 [JAL-1274] | ≤ 5
31 | B18 | ≤ 5
32 | B19 | ≤ 1
33 | B20 | ≤ 15

Reference: patent US9187525B2, “Methods of treating ophthalmic diseases using NPR-B agonists” (Shire Orphan Therapies GmbH, dated 2015)
